Measurements taken from patent publication US20050036988A1 (published 2005).

Target: the molecule itself
Experiment: western immunoblotting of rat liver after chronic CCl4 injury

B1: rat stellate cell activation-associated protein (STAP) (enzyme, UniProt Q921A4 1-190, looked up)
chain: MEKVPGDMEIERRERNEELSEAERKAVQATWARLYANCEDVGVAILVRFFVNFPSAKQYFSQFKHMEDPLEMERSPQLRKHACRVMGALNTVVENLHDPDKVSSVLALVGKAHALKHKVEPMYFKILSGVILDVIAEEFANDFPVETQKAWTKLRGLIYSHVTAAYKEVGWVQQVPNTTTLPATLPSSGP
notes: Detected in rat liver tissue lysates and sections, either endogenous or expressed from rAAV/rSTAP; Immunoblots show monomeric and dimeric forms; also called rSTAP; rat STAP
binding result: binds
